Five molecules from patent US20150307585A1 (published 2015) can be followed below.

In assay [1] the target is T1, RAC1 P29S (Ras-related C3 botulinum toxin substrate 1) peptide on HLA-A*02:01 (human).
T1 peptide: FSGEYIPTV
The assay can be described thus: cytokine release.

Assay [2] deals with T1, RAC1 P29S (Ras-related C3 botulinum …). The assay can be described thus: multimer staining.

B1: T2 (TCR, V domains shown)
Valpha: GENVEQHPSTLSVQEGDSAVIKCTYSDSASNYFPWYKQELGKGPQLIIDIRSNVGEKKDQRIAVTLNKTAKHFSLHITETQPEDSAVYFCAASRGGAQKLVFGQGTRLTINP
Vbeta: DTAVSQTPKYLVTQMGNDKSIKCEQNLGHDTMYWYKQDSKKFLKIMFSYNNKELIINETVPNRFSPKSPDKAHLNLHINSLELGDSAVYFCASSQLAGGPLYNEQFFGPGTRLTVL
Consider B1, for which the binding result in assay [1] is “recognises”.

B2: T3/T4, chain combination TRAV5/TRBV20-1 (TCR, V domains shown)
Valpha: GEDVEQSLFLSVREGDSSVINCTYTDSSSTYLYWYKQEPGAGLQLLTYIFSNMDMKQDQRLTVLLNKKDKHLSLRIADTQTGDSAIYFCAESKRFSDGQKLLFARGTMLKVDL
Vbeta: GAVVSQHPSWVICKSGTSVKIECRSLDFQATTMFWYRQFPKQSLMLMATSNEGSKATYEQGVEKDKFLINHASLTLSTLTVTSAHPEDSSFYICSARDLITDTQYFGPGTRLTVL
As for B2, the binding result in assay [2] was “recognises”.

B3: T6 (TCR, V domains shown)
Valpha: GESVGLHLPTLSVQEGDNSIINCAYSNSASDYFIWYKQESGKGPQFIIDIRSNMDKRQGQRVTVLLNKTVKHLSLQIAATQPGDSAVYFCAENRGANSKLTFGKGITLSVRP
Vbeta: DAGVIQSPRHEVTEMGQEVTLRCKPISGHNSLFWYRQTMMRGLELLIYFNNNVPIDDSGMPEDRFSAKMPNASFSTLKIQPSEPRDSAVYFCASSFTGGFYGYTFGSGTRLTVV
For the molecule B3, the binding result in assay [2] was “recognises”.

B4: T1 (TCR, V domains shown)
Valpha: EDQVTQSPEALRLQEGESSSLNCSYTVSGLRGLFWYRQDPGKGPEFLFTLYSAGEEKEKERLKATLTKKESFLHITAPKPEDSATYLCAVQTSQGGSEKLVFGKGTKLTVNP
Vbeta: DTEVTQTPKHLVMGMTNKKSLKCEQHMGHRAMYWYKQKAKKPPELMFVYSYEKLSINESVPSRFSPECPNSSLLNLHLHALQPEDSALYLCASSQDASGIYYEQYFGPGTRLTVT
For B4, the binding result in assay [1] was “recognises”.

B5: T5 (TCR, V domains shown)
Valpha: GENVEQHPSTLSVQEGDSAVIKCTYSDSASNYFPWYKQELGKGPQLIIDIRSNVGEKKDQRIAVTLNKTAKHFSLHITETQPEDSAVYFCAASLGSGNTPLVFGKGTRLSVIA
Vbeta: DVKVTQSSRYLVKRTGEKVFLECVQDMDHENMFWYRQDPGLGLRLIYFSYDVKMKEKGDIPEGYSVSREKKERFSLILESASTNQTSMYLCASSLHSGRDTQYFGPGTRLTVL
Take B5: in assay [2], the binding result is recorded as “recognises”.
